Results from the RNAGym collection of RNA variant scans (doi:10.1093/molbev/msab373).

B1: Azoarcus group I ribozyme (parent)
chain: GUGCCUUGCGCCGGGAAACCACGCAAGGGAUGGUGUCAAAUUCGGCGAAACCUAAGCGCCCGCCCGGGCGUAUGGCAACGCCGAGCCAAGCUUCGGCGCCUGCGCCGAUGAAGGUGUAGAGACUAGACGGCACCCACCUAAGGCAAACGCUAUGGUGAAGGCAUAGUCCAGGGAGUGGCGAAAGUCACACAAACCGG

Variants of: B1
Test: reverse-splicing fitness (ratio to wild type); higher = more active; in vitro selection; Mg2+ level not given
How it was run: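 An in vitro group I ribozyme library with randomized positions was T7-transcribed and gel-purified. In triplicate, 10 pmol RNA in EPPS pH 7.5 was reacted with 50 pmoles of a 30-nt RNA substrate for 1 h at 37 °C across several added MgCl2 levels (1–48 mM), then stopped with EDTA. Products were reverse transcribed from a substrate-complementary primer, PCR-amplified and sequenced (HiSeq 4000). Fitness is a variant's read proportion after selection over that before, normalised to wild type.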
In the case of C82A A111G A120C A145C C150A C169G, the reverse-splicing fitness is reported as 0.00832. Work on C82A A111G A120C A145C C150A C169U yielded a reverse-splicing fitness of 0.00853. In the case of C82A A111G A120C A145C C150A C169A, the reverse-splicing fitness is reported as 0.00989. With C82A A111G A120C C150U U176G the reverse-splicing fitness was 0.01. For C82A A111G A120C C150U U176C, the reverse-splicing fitness was 0.0238. C82A A111G A120C C150U U176A gave a reverse-splicing fitness of 0.0143. Work on C82A A111G A120C A145U C150U yielded a reverse-splicing fitness of 0.0296. C82A A111G A120C A145U C150G showed a reverse-splicing fitness of 0.011. Variant C82A A111G A120C A145U C150A has a reverse-splicing fitness of 0.0115. C82A A111G A120C A145C C150A U176A showed a reverse-splicing fitness of 0.0102. Work on C82A A111G A120C A145C C150A U176C yielded a reverse-splicing fitness of 0.0151. Work on C82A A111G A120C A145C C150A U176G yielded a reverse-splicing fitness of 0.00529. C82A A111G A120C C150A C169G U176C gave a reverse-splicing fitness of 0.0256. For C82A A111G A120C C150A C169G U176A, the reverse-splicing fitness was 0.0219. Variant C82A A111G A120C C150A C169G U176G has a reverse-splicing fitness of 0.00675. With C82A A111G A120C C169G U176C the reverse-splicing fitness was 0.0237. C82A A111G A120C C169G U176G showed a reverse-splicing fitness of 0.00548. With C82A A111G A120C C169G U176A the reverse-splicing fitness was 0.0206. Variant C82A A111G A120C A145G C150G C169G U176A has a reverse-splicing fitness of 0.0127. C82A A111G A120C A145G C150G C169G U176C showed a reverse-splicing fitness of 0.0115. C82A A111G A120C A145G C150G C169G U176G gave a reverse-splicing fitness of 0.00644. With C82A A111C C150U C169U U176A the reverse-splicing fitness was 0.0165. C82A A111C C150U C169U U176C showed a reverse-splicing fitness of 0.0147. Variant C82A A111C C150U C169U U176G has a reverse-splicing fitness of 0.00804. In the case of C82A A111C C169U U176G, the reverse-splicing fitness is reported as 0.00856. Work on C82A A111C C169U U176A yielded a reverse-splicing fitness of 0.0162. In the case of C82A A111C C169U U176C, the reverse-splicing fitness is reported as 0.0187. C82A A111G A120C C150A C169U U176C showed a reverse-splicing fitness of 0.0133. With C82A A111G A120C C150A C169U U176A the reverse-splicing fitness was 0.0162. Work on C82A A111G A120C C150A C169U U176G yielded a reverse-splicing fitness of 0.00938. With C82A A111G A120C A145G C150A C169G U176G the reverse-splicing fitness was 0.00711. Work on C82A A111G A120C A145G C150A C169G U176A yielded a reverse-splicing fitness of 0.0211. In the case of C82A A111G A120C A145G C150A C169G U176C, the reverse-splicing fitness is reported as 0.0242. In the case of C82A A111C C150G C169A U176G, the reverse-splicing fitness is reported as 0.00698. Work on C82A A111C C150G C169A U176A yielded a reverse-splicing fitness of 0.00958. C82A A111C C150G C169A U176C gave a reverse-splicing fitness of 0.0102. C82A A111G A120C A145U U176C gave a reverse-splicing fitness of 0.0247. C82A A111G A120C A145U U176A showed a reverse-splicing fitness of 0.0171. For C82A A111G A120C A145U U176G, the reverse-splicing fitness was 0.00629. In the case of C82A A111G A120C A145C C150A C169U U176C, the reverse-splicing fitness is reported as 0.011. For C82A A111G A120C A145C C150A C169U U176G, the reverse-splicing fitness was 0.00607. Work on C82A A111G A120C A145C C150A C169U U176A yielded a reverse-splicing fitness of 0.0138. Work on C82A A111C C150G C169G yielded a reverse-splicing fitness of 0.00723. C82A A111C C150G C169A gave a reverse-splicing fitness of 0.00766. Work on C82A A111C C150G C169U yielded a reverse-splicing fitness of 0.00907. C82A A111G A120C A145C C169A U176C showed a reverse-splicing fitness of 0.0109. C82A A111G A120C A145C C169A U176G gave a reverse-splicing fitness of 0.0053. C82A A111G A120C A145C C169A U176A gave a reverse-splicing fitness of 0.0162. C82A A111G A120C A145C C169U gave a reverse-splicing fitness of 0.0116. Work on C82A A111G A120C A145C C169G yielded a reverse-splicing fitness of 0.00965. C82A A111G A120C A145C C169A gave a reverse-splicing fitness of 0.00673. Variant C82A A111G A120C A145U C169U U176C has a reverse-splicing fitness of 0.0131. C82A A111G A120C A145U C169U U176A gave a reverse-splicing fitness of 0.0152. Variant C82A A111G A120C A145U C169U U176G has a reverse-splicing fitness of 0.00505. For C82A A111G A120C A145C C150A C169A U176C, the reverse-splicing fitness was 0.0105. C82A A111G A120C A145C C150A C169A U176A gave a reverse-splicing fitness of 0.0178. Variant C82A A111G A120C A145C C150A C169A U176G has a reverse-splicing fitness of 0.00558. Variant C82A A111G A120C A145G C150G C169A U176A has a reverse-splicing fitness of 0.0145. C82A A111G A120C A145G C150G C169A U176C gave a reverse-splicing fitness of 0.0137. C82A A111G A120C A145G C150G C169A U176G showed a reverse-splicing fitness of 0.00827. For C82A A111G A120C A145C C150U C169U U176G, the reverse-splicing fitness was 0.00597. Variant C82A A111G A120C A145C C150U C169U U176A has a reverse-splicing fitness of 0.0132. C82A A111G A120C A145C C150U C169U U176C showed a reverse-splicing fitness of 0.0102. With C82A A111G A120C C150A C169A U176A the reverse-splicing fitness was 0.0277. Variant C82A A111G A120C C150A C169A U176C has a reverse-splicing fitness of 0.0231. With C82A A111G A120C C150A C169A U176G the reverse-splicing fitness was 0.00754. Variant C82A A111G A120C A145U C150A C169G U176A has a reverse-splicing fitness of 0.0188. C82A A111G A120C A145U C150A C169G U176C showed a reverse-splicing fitness of 0.0245. For C82A A111G A120C A145U C150A C169G U176G, the reverse-splicing fitness was 0.00642. C82A A111G A120C A145C C150U C169G U176C showed a reverse-splicing fitness of 0.0213. With C82A A111G A120C A145C C150U C169G U176A the reverse-splicing fitness was 0.025. With C82A A111G A120C A145C C150U C169G U176G the reverse-splicing fitness was 0.00681. Work on C82A A111G A120C A145G C150G C169G yielded a reverse-splicing fitness of 0.00734. C82A A111G A120C A145G C150G C169U gave a reverse-splicing fitness of 0.00967. Variant C82A A111G A120C A145G C150G C169A has a reverse-splicing fitness of 0.00974. In the case of C82A A111G A120C A145G C150U C169A U176G, the reverse-splicing fitness is reported as 0.00816. With C82A A111G A120C A145G C150U C169A U176C the reverse-splicing fitness was 0.0172. C82A A111G A120C A145G C150U C169A U176A gave a reverse-splicing fitness of 0.0194. In the case of C82A A111G A120C A145G C150U U176C, the reverse-splicing fitness is reported as 0.0258. Variant C82A A111G A120C A145G C150U U176A has a reverse-splicing fitness of 0.0156. With C82A A111G A120C A145G C150U U176G the reverse-splicing fitness was 0.00916. Work on C82A A111G A120C U176C yielded a reverse-splicing fitness of 0.032. Work on C82A A111G A120C U176G yielded a reverse-splicing fitness of 0.00892. C82A A111G A120C U176A gave a reverse-splicing fitness of 0.0208.
